Test results: patent US20170129962A1 (Hoffmann-La Roche, published 2017)
Where a chain is given by its changes, count along the chain named. Names may count otherwise.

T1: human IL17 (human, UniProt Q16552 24-155)
T1 construct: for that reason an apparent KD is reported; also called IL17-A
T1 sequence (looked up): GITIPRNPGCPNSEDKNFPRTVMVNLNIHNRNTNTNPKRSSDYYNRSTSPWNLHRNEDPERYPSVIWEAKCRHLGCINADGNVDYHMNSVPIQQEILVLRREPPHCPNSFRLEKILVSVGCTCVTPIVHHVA

T2: TWEAK (human, UniProt O43508 94-249, limits assumed)
T2 construct: The method paragraph says only 'TWEAK'; also called human TWEAK; TNF-related weak inducer of apoptosis
T2 sequence (looked up): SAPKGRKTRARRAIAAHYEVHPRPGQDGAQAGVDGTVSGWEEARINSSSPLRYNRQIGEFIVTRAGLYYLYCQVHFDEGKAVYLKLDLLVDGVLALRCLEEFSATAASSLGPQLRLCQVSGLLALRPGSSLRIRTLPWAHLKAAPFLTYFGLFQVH

B1: TweakIL17-0129 (bispecific antibody, human IgG4 S228P, kappa)
light 1: DIVMTQSPLSLPVTPGEPASISCRSSQSLVHSNGDTYFHWYLQKPGQSPQLLIYKVSNRFSGVPDRFSGSGSGTDFTLKISRVEAEDVGVYYCSQTTHAPFTFGQGTKLEIKRTVAAPSVFIFPPSDEKLKSGTASVVCLLNNFYPREAKVQWKVDNALQSGNSQESVTEQDSKDSTYSLSSTLTLSKADYEKHKVYACEVTHQGLSSPVTKSFNRGEC
heavy 1: EVQLVESGGGLVQPGGSLRLSCAASGFSLDSYGVHWVRQATGKGLEWVSVIWSDGTTTYNSALKSRFTISRENAKNSLYLQMNSLRAGDTAVYYCARDTHYRLYYYAMDYWGQGTTVTVSSASTKGPSVFPLAPCSRSTSESTAALGCLVEDYFPEPVTVSWNSGALTSGVHTFPAVLQSSGLYSLSSVVTVPSSSLGTKTYTCNVDHKPSNTKVDKRVESKYGPPCPPCPAPEFEGGPSVFLFPPKPKDTLMISRTPEVTCVVVDVSQEDPEVQFNWYVDGVEVHNAKTKPREEQFNSTYRVVSVLTVLHQDWLNGKEYKCKVSNKGLPSSIEKTISKAKGQPREPQVCTLPPSQEEMTKNQVSLSCAVKGFYPSDIAVEWESNGQPENNYKTTPPVLDSDGSFFLVSRLTVDKSRWQEGNVFSCSVMHEALHNHYTQKSLSLSLGK
light 2: DIQMTQSPSSVSASVGDRVTITCQASQNIYSNLAWYQQKPGKAPKLLIYTASYLASGVPSRFSGSGSGTDYTLTISSLQPEDFATYYCQTAYYNSRPDTVAFGGGTKVEIKSSASTKGPSVFPLAPCSRSTSESTAALGCLVKDYFPEPVTVSWNSGALTSGVHTFPAVLQSSGLYSLSSVVTVPSSSLGTKTYTCNVDHKPSNTKVDKRVESKYG
heavy 2: QVQLVQSGAEVKKPGSSVKVSCKASGFDFSTYYMSWVRQAPGQGLEWMGTVYVRQGTTYYASWLNGRVTITADESTSTAYMELSSLRSEDTAVYYCARGGYNYDDAFVIWGQGTLVTVSSASVAAPSVFIFPPSDEQLKSGTASVVCLLNNFYPREAKVQWKVDNALQSGNSQESVTEQDSKDSTYSLSSTLTLSKADYEKHKVYACEVTHQGLSSPVTKSFNRGECPPCPPCPAPEFEGGPSVFLFPPKPKDTLMISRTPEVTCVVVDVSQEDPEVQFNWYVDGVEVHNAKTKPREEQFNSTYRVVSVLTVLHQDWLNGKEYKCKVSNKGLPSSIEKTISKAKGQPREPQVYTLPPCQEEMTKNQVSLWCLVKGFYPSDIAVEWESNGQPENNYKTTPPVLDSDGSFFLYSRLTVDKSRWQEGNVFSCSVMHEALHNHYTQKSLSLSLGK
notes: CrossMAb CH1-CL, knob-into-hole with S354C/Y349C
B2: TweakIL17-0132 (bispecific antibody, human IgG4 S228P, kappa)
light 1: B1 light 1 with E128K, K129R
heavy 1: B1 heavy 1 with K217E
light 2: B1 light 2
heavy 2: B1 heavy 2
notes: as for B1
B3: TweakIL17-0134 (bispecific antibody, human IgG4 S228P, kappa)
light 1: B1 light 1
heavy 1: B1 heavy 1
light 2: B1 light 2
heavy 2: B1 heavy 2 with Q137E
notes: as for B1
B4: TweakIL17-0130 (bispecific antibody, human IgG4 S228P, kappa)
light 1: B1 light 1 with E128K, K129Q
heavy 1: B1 heavy 1 with E151K, K217E
light 2: B1 light 2
heavy 2: B1 heavy 2
notes: as for B1
B5: TweakIL17-0049 (bispecific antibody, human IgG4 S228P, kappa)
light 1: B1 light 1 with K129Q
heavy 1: B1 heavy 1 with E151K
light 2: B1 light 2
heavy 2: B1 heavy 2
notes: also called TweakIL17-0049 (control)

target: T1, human IL17; test: SPR (Biacore), bispecific antibody captured by anti-human F(ab')2, human IL17 as analyte, 1:1 Langmuir, apparent KD
Experimental: (§1) Around 6000 resonance units (RU) of the capturing system (15 μg/ml goat anti human F(ab′)2; Order Code: 28958325; GE Healthcare Bio-Sciences AB, Schweden) were coupled on a CMS chip at pH 5.0 by using an amine coupling kit supplied by the GE Healthcare. The sample and system buffer was PBS-T (10 mM phosphate buffered saline including 0.05% Tween 20) pH 7.4. The bispecific antibody was captured by injecting a 50 nM solution for 90 sec at a flow of 10 μl/min. Association was measured by injection human IL17 in various concentrations in solution for 3 min at a flow of 30 μl/min starting with 50 nM in 1:1 serial dilutions. The dissociation phase was monitored for up to 10 min and triggered by switching from the sample solution to running buffer. The surface was regenerated twice by 60 sec wash with a 10 mM glycine pH 2.1 solution at a flow rate of 30 μl/min. Bulk refractive index differences were corrected by subtracting the response obtained from a goat anti human F(ab′)2 surface. Blank injections are also subtracted (=double referencing). For calculation of apparent KD and other kinetic parameters, the Langmuir 1:1 model was used.
(§2) Binding of the multispecific antibodies to their respective target antigens, i.e. IL17 and TWEAK, was assessed by Biacore® as described in the general methods section.

Row | Kd [nM] | Binder
1 | < 0.1 | B1
2 | < 0.1 | B2
3 | < 0.1 | B3
4 | < 0.1 | B4
5 | < 0.1 | B5

target: T2, TWEAK; test: SPR (Biacore), TWEAK amine-coupled on C1 chip, bispecific antibody as analyte, 1:1 Langmuir
Experimental: Around 100 RU of TWEAK was immobilized on the C1 chip surface at pH 5.0 using an amine coupling kit supplied by the GE Healthcare. The sample and system buffer was PBS-T (10 mM phosphate buffered saline including 0.05% Tween 20) pH 7.4. Association was measured by injection the bispecific antibody in various concentrations in solution for 3 min at a flow of 30 μl/min starting with 50 nM in 1:1 serial dilutions. The dissociation phase was monitored for up to 10 min and triggered by switching from the sample solution to running buffer. The surface was regenerated three times by 30 sec wash with a 3 M MgCl2 solution at a flow rate of 30 μl/min. Bulk refractive index differences were corrected by subtracting the response obtained from a blank-coupled surface. Blank injections are also subtracted (=double referencing). For calculation of KD and other kinetic parameters, the Langmuir 1:1 model was used.
as §2

Row | Kd [nM] | koff [s⁻¹] | kon [M⁻¹ s⁻¹] | Binder
6 | < 0.1 | 2.64e-05 | 707000 | B1
7 | < 0.1 | 4.79e-05 | 1.17e+06 | B2
8 | < 0.1 | 3e-05 | 870000 | B3
9 | < 0.1 | 2.83e-05 | 859000 | B4
10 | < 0.1 | 4.82e-05 | 1.27e+06 | B5

target: T1, human IL17; test: SPR (Biacore), bispecific antibody captured by anti-human F(ab')2, human IL17 as analyte, 1:1 Langmuir
Experimental: as §1, §2

Row | koff [s⁻¹] | kon [M⁻¹ s⁻¹] | Binder
11 | 0.000204 | 1.09e+07 | B1
12 | 0.00013 | 1.39e+06 | B2
13 | 0.000208 | 1.1e+07 | B3
14 | 0.000194 | 1.04e+07 | B4
15 | 0.000123 | 1.34e+06 | B5
